Columns and labels:
Type in all cases: cell-based
[1] = system: Jurkat, CEM and TF-1a cells; assay: Cell survival and proliferation (Nucleocounter NC-200, flow cytometry with PI and 7-AAD)
Procedure: Jurkat, CEM, and Tf-1a cell lines were transduced with a lentiviral vector that expresses GCLM and green fluorescent protein (GFP) genes. Chemoprotection experiments were performed by incubating untransduced or mixed populations of (20% transduced, 80% untransduced) cells with busulfan in concentrations ranging from 0 to 200 μg/ml for 1, 2 or 4 hours. Cells were then incubated in busulfan-free culture for 24, 48, 72 and 96 h. Area under the concentration-time curve (AUC) was estimated by using trapezoidal rule from different times and concentrations of incubation. Pre- and post-exposure GSH levels were measured with fluorometric assays. Cell survival and proliferation at different time-points were measured by Nucleocounter NC-200 and flow cytometry using PI and 7-AAD staining protocols. The chemoselection of protected GFP+ cells were evaluated by flow cytometry. Baseline GSH levels and GCLM expression were also measured in primary human HSPCs harvested from 3 different donors with fluorometric and RT-PCR assays. […]
(§1) Jurkat, CEM, and TF-1a cell lines were transduced with a lentiviral vector that expresses GCLM and green fluorescent protein (GFP) genes (FIG. 2A). […] Pre- and post-transduction, and post-exposure GSH levels were measured with fluorometric assays by FACS analysis. […] The chemo selection of protected GFP-positive cells were evaluated by flow cytometry.

CEM cells [2] = assay: GSH level by fluorometric assay, untransduced vs GCLM-transduced cells, pre- and post-busulfan exposure
Procedure: (§2) Jurkat, CEM, and Tf-1a cell lines were transduced with a lentiviral vector that expresses GCLM and green fluorescent protein (GFP) genes. Chemoprotection experiments were performed by incubating untransduced or mixed populations of (20% transduced, 80% untransduced) cells with busulfan in concentrations ranging from 0 to 200 μg/ml for 1, 2 or 4 hours. Cells were then incubated in busulfan-free culture for 24, 48, 72 and 96 h. Area under the concentration-time curve (AUC) was estimated by using trapezoidal rule from different times and concentrations of incubation. Pre- and post-exposure GSH levels were measured with fluorometric assays. Cell survival and proliferation at different time-points were measured by Nucleocounter NC-200 and flow cytometry using PI and 7-AAD staining protocols. The chemoselection of protected GFP+ cells were evaluated by flow cytometry. Baseline GSH levels and GCLM expression were also measured in primary human HSPCs harvested from 3 different donors with fluorometric and RT-PCR assays.
(§3) The Cells are incubated with busulfan (0, 1, 2, 4, 6, 8, 10, 20, 40, 60, 80, 100 and 200 μg/ml) in serum-free media (RPMI) for 1, 2 and 4 hours. The cells were then washed with ice-cold buffer (PBS+0.5% HSA+0.1% glucose). The washed cells were cultured in RPMI+20% FBS. 24, 48, 72, and 96 h time-point measurements were done.
(§4) Jurkat, CEM, and TF-1a cell lines were transduced with a lentiviral vector that expresses GCLM and green fluorescent protein (GFP) genes (FIG. 2A). Chemoprotection experiments were performed by incubating untransduced or mixed populations of (20% transduced, 80% untransduced) cells with busulfan in concentrations ranging from low (2 to 10 ug/ml) to moderate and high (10 to 200 ug/ml) for 1 or 2 hours. Cells were then incubated and viable cell counts were documented in busulfan-free culture for the 24, 48, 72 and 96-hr timepoints (FIG. 2B). Pre- and post-transduction, and post-exposure GSH levels were measured with fluorometric assays by FACS analysis. Cell survival and proliferation were measured daily by Nucleocounter NC-200 and flow cytometry using PI and 7-AAD staining protocols. The chemo selection of protected GFP-positive cells were evaluated by flow cytometry.

CEM cells [3] = assay: Chemoprotection experiment: busulfan exposure, then viable cell count and proliferation in busulfan-free culture; conditions: for expansion of viable transduced cells: CEM cells; for fold expansion in viable transduced cells: at 72 h
Procedure: as §2, §3, §4

CEM cells [4] = assay: Chemoselection of protected GFP+ cells by flow cytometry in mixed populations (20% transduced, 80% untransduced)
Procedure: as §2, §3, §4

TF-1a cells = assay: GSH level by fluorometric assay, untransduced vs GCLM-transduced cells; conditions: lentiviral GCLM/GFP transduction
Procedure: as §2, §1

Jurkat cells = assay: as above; conditions: lentiviral GCLM/GFP transduction
Procedure: as §2, §1

## CS(=O)(=O)OCCCCOS(C)(=O)=O [busulfan, reference compound]
[1]; all cell cultures, AUC estimated by trapezoidal rule
  dependence of cell death and proliferation on busulfan exposure: AUC-dependent
CEM cells [2]; untransduced cells
  GSH in untransduced cells after busulfan exposure: depleted
CEM cells [3]; untransduced CEM cells compared with Jurkat and TF-1a
  sensitivity of untransduced cells to busulfan exposure: most sensitive
CEM cells [3]; untransduced CEM cells, higher doses (10 and 20 μg/ml), by 96 hours
  survival of untransduced cells after busulfan: all dead

B1: GCLM: Heterologous human glutamate-cysteine ligase modifier subunit (SEQ ID NO: 1) overexpressed in cells via lentiviral vector co-expressing GFP (protein)
chain: MGTDSRAAKALLARARTLHLQTGNLLNWGRLRKKCPSTHSEELHDCIQKTLNEWSSQINPDLVREFPDVLECTVSHAVEKINPDEREEMKVSAKLFIVESNSSSSTRSAVDMACSVLGVAQLDSVIIASPPIEDGVNLSLEHLQPYWEELENLVQSKKIVAIGTSDLDKTQLEQLYQWAQVKPNSNQVNLASCCVMPPDLTAFAKQFDIQLLTHNDPKELLSEASFQEALQESIPDIQAHEWVPLWLLRYSVIVKSRGIIKSKGYILQAKRRGS
CEM cells [4]; 72 h of culture after 10 ug/ml busulfan for 1 h, starting from 20%
  purity of transduced CEM cells: 88%
CEM cells [4]; CEM cells, 10 or 20 μg/ml busulfan, 1-hr or 2-hr exposure, by 96 hours, from 20% initial
  transduced cell population: 100%
CEM cells [4]; CEM cells, 72 h of culture after 10 ug/ml busulfan for 1 h, starting from 30×10^3/ml
  viable transduced cell count: 84000 mL⁻¹
CEM cells [4]; busulfan doses higher than 10 ug/ml or exposure longer than 1 h, after 72 h
  transduced cells as share of the cultures: 100%
CEM cells [4]; moderate levels of busulfan exposure, in 72-96 h
  transduced cell population: 100%
[1]; Jurkat, CEM and TF-1a cells, no busulfan
  effect of GCLM overexpression on cell viability and proliferation: no effect
CEM cells [2]; CEM cells, different dose and time, 24-hr post busulfan exposure
  GSH level in transduced cells relative to untransduced cells after busulfan: at least 3.5 fold
CEM cells [2]; CEM cells, lentiviral GCLM/GFP transduction
  GSH level change between untransduced and transduced cells: 1.7 fold
CEM cells [2]; transduced cells, after busulfan exposure
  GSH levels in transduced cells throughout the experiment: remained stable
CEM cells [3]; 10 μg/ml busulfan, by 96 hours
  expansion of viable transduced cells: 5 fold
CEM cells [3]; 20 μg/ml busulfan, by 96 hours
  expansion of viable transduced cells: 3 fold
CEM cells [3]; GCLM-transduced CEM cells, lower doses of busulfan
  protection (proliferation rate) against busulfan: at least 3.5 fold
CEM cells [3]; busulfan-exposed transduced cells
  fold expansion in viable transduced cells: 2.8 fold
CEM cells [3]; untreated (no busulfan) transduced control
  fold expansion in viable transduced cells: 3.2 fold
TF-1a cells
  GSH level change between untransduced and transduced cells: 1.9 fold
Jurkat cells
  GSH level change between untransduced and transduced cells: 2.1 fold

Source: US12390491B2, “Compositions and methods for providing chemoprotective effects” (GTECH BIO LLC, priority 2020, dated 2025)
